We go through nine molecules from article PMC3556126, “The site-specific integration reaction of Listeria phage A118 integrase, a serine recombinase”.

Bounds are passed on as bounds.

Data set [1] concerns the target Listeria phage A118 integrase, N-terminally histidine tagged, full-length (Listeria phage A118). In words: SEC; FPLC Superdex-200 10/300 GL; 20 mM HEPES pH 7.5, 1 M NaCl, 1 mM DTT, 10% glycerol; 0.4 ml/minute; 23°C. A general note: SEC sorts molecules by how far they enter the pores of the column.
Data set [2] concerns the target T1, A118 integrase (HisInt) (Listeria monocytogenes phage A118, UniProt Q8Y4U8 1-452).
T1 sequence: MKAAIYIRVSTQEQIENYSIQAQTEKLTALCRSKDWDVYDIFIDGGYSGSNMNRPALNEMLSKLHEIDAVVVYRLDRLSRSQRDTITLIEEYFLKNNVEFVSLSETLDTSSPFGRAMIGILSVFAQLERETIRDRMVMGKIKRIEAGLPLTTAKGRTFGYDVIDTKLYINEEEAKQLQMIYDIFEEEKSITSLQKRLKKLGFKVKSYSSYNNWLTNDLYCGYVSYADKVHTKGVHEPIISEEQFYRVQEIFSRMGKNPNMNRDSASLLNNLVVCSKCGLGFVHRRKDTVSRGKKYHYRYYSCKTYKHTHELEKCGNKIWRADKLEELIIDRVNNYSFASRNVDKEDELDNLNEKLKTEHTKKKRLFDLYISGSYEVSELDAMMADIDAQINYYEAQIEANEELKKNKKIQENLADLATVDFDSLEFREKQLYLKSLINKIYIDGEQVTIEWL
In words: EMSA. The conditions noted are these: 20 mM HEPES pH 7.5, 100 mM NaCl, 0.1 mg/ml BSA, 5 mM spermidine, 5 mM DTT, 5% glycerol, 50 ug/ml salmon sperm DNA, about 0.1 pmol probe in 10 ul, 30 C 30 min ….

Data set [3] concerns the target T2, A118 integrase C-terminal domain (HisInt158-452) (Listeria monocytogenes phage A118) (UniProt Q8Y4U8).
T2 sequence: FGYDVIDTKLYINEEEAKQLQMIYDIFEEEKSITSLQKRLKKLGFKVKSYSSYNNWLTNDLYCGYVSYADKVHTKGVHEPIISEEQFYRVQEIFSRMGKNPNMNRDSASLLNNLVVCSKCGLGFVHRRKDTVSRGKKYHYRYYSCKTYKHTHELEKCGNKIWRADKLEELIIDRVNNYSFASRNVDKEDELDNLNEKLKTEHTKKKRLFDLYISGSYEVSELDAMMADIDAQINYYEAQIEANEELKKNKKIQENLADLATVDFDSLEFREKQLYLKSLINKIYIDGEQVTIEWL
In words: EMSA. The conditions noted are these: mainly complex I, 20 mM HEPES pH 7.5, 100 mM NaCl, 0.1 mg/ml BSA, 5 mM spermidine, 5 mM DTT, 5% glycerol, 50 ug/ml salmon sperm DNA, about 0.1 pmol probe in 10 ul, 30 C 30 min …. Background: Mobility shift assays separate free from complexed probe on a gel.

Data set [4] addresses T1, A118 integrase (HisInt). In words: EMSA; 810 nM; 20 mM HEPES pH 7.5, 100 mM NaCl, 0.1 mg/ml BSA, 5 mM spermidine, 5 mM DTT, 5% glycerol, 50 ug/ml salmon sperm DNA, about 0.1 pmol probe in 10 ul, 30 C 30 min; 6% PAGE in 0.5x TBE at room temperature. The note with it: protein: recombinant; tags: N-terminal His (pET15b); chain copies: 2; label: 32P; blunt.
Data set [5] addresses T3, A118 integrase C-terminal domain (HisInt158-452) (Listeria monocytogenes phage A118, UniProt Q8Y4U8 158-452).
T3 sequence: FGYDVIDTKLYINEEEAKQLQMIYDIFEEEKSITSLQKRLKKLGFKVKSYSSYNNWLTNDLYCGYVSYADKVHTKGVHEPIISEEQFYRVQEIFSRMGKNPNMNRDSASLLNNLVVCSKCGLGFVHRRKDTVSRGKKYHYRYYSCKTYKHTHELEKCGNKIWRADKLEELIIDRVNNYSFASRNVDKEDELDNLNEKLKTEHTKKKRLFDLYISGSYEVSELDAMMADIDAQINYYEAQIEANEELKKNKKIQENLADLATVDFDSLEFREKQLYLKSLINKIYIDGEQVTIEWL
The data set is described as above. The note with it: protein: recombinant; tags: N-terminal His (pET15b); label: 32P; blunt.

Data set [6] deals with T1, A118 integrase (HisInt). Kind of data set: protease protection; twofold molar excess of DNA; chymotrypsin or proteinase K; 20 mM HEPES pH 7.5, 100 mM NaCl, 0.1 mg/ml BSA, 5 mM spermidine, 5 mM DTT, 5% glycerol, 50 ug/ml salmon sperm DNA, about 0.1 pmol probe in 10 ul, 30 C 30 min; 6% PAGE in 0.5x TBE at room temperature. The note with it: protein: recombinant; tags: N-terminal His (pET15b); chain copies: 2; blunt.

Data set [7] has as its target T1, A118 integrase (HisInt). Kind of data set: EMSA; predominantly dimer; 20 mM HEPES pH 7.5, 100 mM NaCl, 0.1 mg/ml BSA, 5 mM spermidine, 5 mM DTT, 5% glycerol, 50 ug/ml salmon sperm DNA, about 0.1 pmol probe in 10 ul, 30 C 30 min; 6% PAGE in 0.5x TBE at room temperature. The note with it: protein: recombinant; tags: N-terminal His (pET15b); chain copies: 2; label: 32P; blunt.

Where [8] appears, read: dimer complex, apparent, panel assignment by order.

What is called stoichiometry N is the number of molecules, sites or subunits per partner or assembly. The molecule “Listeria phage A118 integrase, N-terminally histidine tagged, full-length (enzyme)” displayed a stoichiometry N in data set [1] of 2. Take attB 100 bp: the results for the Kd (in the data set with A118 integrase (HisInt) [2]; in data set [3] (binds much less than attP)) were 72 nM and over 800 nM, respectively. In the case of attL 100 bp, in the data set with A118 integrase (HisInt) [2] (setting [8]), the Kd turned out to be 75 nM. attP 100 bp: the Kd with A118 integrase (HisInt) [2] came out at 48 nM; in data set [3], 145 nM. attR 100 bp: in the data set with A118 integrase (HisInt) [2] (setting [8]), the Kd came to 60 nM.

B1: attB -oB' half-site (dsDNA)
DNA 1: CCGCGCATAGGAGGAACCCTGGGACGCAAAGAGGGAACTAAACA
DNA 2: TGTTTAGTTCCCTCTTTGCGTCCCAGGGTTCCTCCTATGCGCGG
As for B1, the binding result in the data set with A118 integrase (HisInt) [4] is “no binding”.

B2: attP -oP' half-site (dsDNA)
DNA 1: GCCCGACCAAGTTCGCGCAGGAGGGGAAGAAGAAGAAACGAGAAACTAAA
DNA 2: TTTAGTTTCTCGTTTCTTCTTCTTCCCCTCCTGCGCGAACTTGGTCGGGC
As to B2, the binding result (in data set [5]; with A118 integrase (HisInt) [4]) was “no binding” throughout.

B3: attP 50 bp (dsDNA)
DNA 1: TTTAGTTCCTCGTTTTCTCTCGTTGGAAGAAGAAGAAACGAGAAACTAAA
DNA 2: TTTAGTTTCTCGTTTCTTCTTCTTCCAACGAGAGAAAACGAGGAACTAAA
For the molecule B3, the binding result with A118 integrase (HisInt) [6] is “binds”.

B4: attP Po- half-site (dsDNA)
DNA 1: TTTAGTTCCTCGTTTTCTCTCGTTGGACTCCTCCTCGCTCGTCCCAGCCC
DNA 2: GGGCTGGGACGAGCGAGGAGGAGTCCAACGAGAGAAAACGAGGAACTAAA
B4: the Kd with A118 integrase (HisInt) [7] was about 1000 nM.
